Reference: the Human Domainome abundance scans (Beltran et al. 2025)

B1: Gamma-crystallin C, residues 4 to 79; numbered along this chain, P07315 (parent)
chain: ITFYEDRAFQGRSYETTTDCPNLQPYFSRCNSIRVESGCWMLYERPNYQGQQYLLRRGEYPDYQQWMGLSDSIRSC
B2: Tyrosine-protein kinase Lck, residues 63 to 120; numbered along this chain, P06239 (parent)
chain: DNLVIALHSYEPSHDGDLGFEKGEQLRILEQSGEWWKAQSLTTGQEGFIPFNFVAKAN

Variants of: B1
Test: abundance fitness (aPCA) (normalised: wild type 0, dead -1); higher = more abundant; growth selection in yeast, the domain comes from the species named
Settings: Homo sapiens

Abundance fitness, by site and new letter:
D6: S -0.065; Y 0.032; K 0.086; T 0.057; A -0.103; C 0.069; G -0.009; V -0.164; F -0.204; H 0.115; E -0.038; W -0.208; P -0.819; M 0.159; Q 0.086; L 0.032; N -0.035; R 0.003
Q10: S -0.066; K 0.158; M -0.228; H 0.124; Y -0.107; F -0.082; P -1.2; W -0.159; A 0.065; V 0.033; L -0.123; N -0.094; T 0.034; C 0.053; R -0.082; G -0.002
R7: I -0.141; C -0.002; V 0.045; L -0.029; Q 0.013; F -0.082; T -0.237; W -0.086; G -0.02; Y -0.266; P 0.219; N 0.044; D -0.153; A -0.031; S -0.117; K -0.141; M -0.444
R12: L -0.034; K 0.031; C -0.063; E 0.066; I 0.017; F 0.026; A -0.058
F9: Q -0.207; W -0.028; A -0.139; E -0.367; S -0.617; L 0.12; M -0.095; T -0.56; V -0.628; C 0.12
I1: L -0.4; V -0.032; T -0.722; M -0.291
T2: C -0.054; W -0.201; F 0.101; K -0.039; M -0.116; L -0.15; A -0.254; I 0.093; Q -0.114; E -0.473; N -0.002; Y 0.088; G -0.329; R -0.145; P -0.838; V 0.049
E5: Q -0.076; R 0.014; T -0.156; K -0.162; I 0.122; W -0.209; P -0.127; G -0.124; V -0.107; L -0.334; D -0.008; M 0.097
A8: W -0.069; I 0.001; Y -0.101; E 0.103; H 0.016; T -0.016; Q 0.007; G 0.053; R -0.005; C 0.072; F -0.06; M 0.013; V -0.064; S -0.016; D -0.275; P -0.312; N 0.181
G11: Q -0.421; Y -0.591; M -0.504; V -0.393; N 0.162; E -0.321; L -0.41; F -0.919; S -0.142; W -0.955; H -0.49; R -0.155; D -0.5; C -0.299
F3: G -1.23; I -0.368; P -1; Q -0.94; C -0.586; K -0.991; T -0.753; M -0.071; L -0.036; N -0.826; W -0.789; R -1.18; S -1.01; V -1.08
Y4: E -0.848; G -0.863; R -0.99; L -0.984; F 0.333; V -1.11; N -0.631; A -0.989; P -1.12; Q -1.01; W -0.094; K -0.862; S -0.725; H -0.364

Variants of: B2
Test: as above
Settings: Homo sapiens

Abundance fitness, by site and new letter:
A57: Y -0.176; G -0.076; V -0.023; H -0.057; M -0.195; N -0.614; C -0.244; I -0.003; T 0.008; S -0.098; P -0.046; W -0.132; E 0.092; F -0.394; R -0.093; L 0.003; Q -0.112; K -0.18
N52: F -0.589; I -0.854; R -0.017; A -0.202; V -0.709; H -0.189; E 0.029; C -0.303; L -0.624; W -0.278; P -0.628; T -0.207; K 0.023; Q -0.021; Y -0.311; G -0.067; D 0.001
F51: T -0.235; N 0.043; D -0.178; Y -0.037; Q 0.021; A 0.104; V -0.033; M 0.137; G 0.095; K 0.103; I 0.047; L -0.221; E -0.022; H -0.055; C 0.163; R 0.148; P 0.07
P50: W -0.709; E -1.21; T -0.851; A -1; F -0.885; H -0.474; D -0.73; V -0.936; I -0.874; Y -1.08; N -0.652; S -0.796; G -0.888; K -0.719; L -0.995; M -1.03
A55: T -0.013; M -0.12; E 0.037; F -0.369; V -0.021; N -0.231; Q 0.04; H -0.27; L -0.4; C -0.141; W -0.515; P -0.835; G -0.007; Y -0.261; R -0.019; K -0.154; I -0.084; D -0.102
K56: I -0.233; D -0.108; F -0.087; G -0.123; Y -0.138; Q -0.174; P 0.04; S -0.002; C -0.117; V -0.118; L -0.217; R -0.09; A 0.019; E 0.022; T -0.095; W -0.095; N 0.055; H 0.015; M -0.146
V54: R -0.813; H -0.967; M -0.715; S -0.751; Q -0.901; Y -0.826; E -0.709; C -0.375; P -0.732; I -0.416; W -0.754; N -0.859; K -1.05; F -0.6; L -0.705; D -0.926; T -0.45; A -0.663
F53: L -0.028; G -0.423; A -0.013; S 0.032; T -0.214; M -0.143; K -0.37; E -0.488; N -0.527; H -0.162; Q -0.293; P -0.842; V -0.268; W -0.107; C -0.157; R -0.196; I -0.156
I49: H -0.794; D -0.801; K -0.771; M -0.663; S -0.939; W -0.967; Q -0.796; V -0.094; R -0.792; C -0.67; T -0.622; G -0.905; L -0.367; F -0.427; P -0.759; Y -1.2; E -0.996; N -0.828; A -0.646
F48: V -0.096; S -0.308; A -0.235; Q -0.274; E -0.286; K 0.115; G -0.576; L 0.019; W 0.075; M -0.063; H -0.172; P -0.52; I -0.264; D -0.559; R 0.011; T -0.115
